The source of these data is article PMC12990809.

Test in all cases: pulldown
For one data set, the target named is T1, RBM41 (Homo sapiens) (UniProt Q96IZ5).
T1 sequence: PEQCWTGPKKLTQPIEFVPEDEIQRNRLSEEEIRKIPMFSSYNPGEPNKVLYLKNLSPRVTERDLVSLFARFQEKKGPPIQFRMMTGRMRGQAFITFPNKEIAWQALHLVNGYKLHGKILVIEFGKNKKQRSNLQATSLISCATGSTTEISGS
The following applies: 20 nM protein, 1.5 uM RNA pool; 20 mM HEPES pH 7.8, 70 mM KCl, 10 mM NaCl, 10% glycerol, 2 mM DTT, 0.1 ug/uL BSA; 30 min, 4 C (protocol of this paper; not …); cited from earlier work.

Data set [1] addresses T2, tia1 (Tetraodon nigroviridis) (UniProt H3D7H4).
T2 sequence: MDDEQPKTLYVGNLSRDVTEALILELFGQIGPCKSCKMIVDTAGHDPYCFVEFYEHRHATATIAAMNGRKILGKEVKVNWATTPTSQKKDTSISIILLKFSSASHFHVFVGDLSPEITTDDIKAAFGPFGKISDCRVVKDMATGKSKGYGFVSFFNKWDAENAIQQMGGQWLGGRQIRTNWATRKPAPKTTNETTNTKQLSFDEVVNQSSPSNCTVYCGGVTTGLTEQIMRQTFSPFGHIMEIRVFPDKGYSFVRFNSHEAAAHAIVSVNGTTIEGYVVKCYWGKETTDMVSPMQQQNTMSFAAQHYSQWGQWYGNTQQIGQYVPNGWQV
The following applies: 20 nM protein, 1.5 uM RNA pool; 20 mM HEPES pH 7.8, 70 mM KCl, 10 mM NaCl, 10% glycerol, 2 mM DTT, 0.1 ug/uL BSA; 30 min, 4 C.

In another data set the target is T3, RBM4 (Homo sapiens) (UniProt Q9BWF3).
T3 sequence: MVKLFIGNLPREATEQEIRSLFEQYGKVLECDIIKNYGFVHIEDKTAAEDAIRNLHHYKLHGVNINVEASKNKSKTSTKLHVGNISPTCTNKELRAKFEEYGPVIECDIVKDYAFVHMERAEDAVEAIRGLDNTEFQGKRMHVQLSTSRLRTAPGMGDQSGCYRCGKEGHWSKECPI
The following applies: 20 nM protein, 1.5 uM RNA pool; 20 mM HEPES pH 7.8, 70 mM KCl, 10 mM NaCl, 10% glycerol, 2 mM DTT, 0.1 ug/uL BSA; 30 min, 4 C (protocol of this paper; not …); cited from earlier work.

The next data set has as its target T4, Rbm38 (Mus musculus) (UniProt Q62176).
T4 sequence: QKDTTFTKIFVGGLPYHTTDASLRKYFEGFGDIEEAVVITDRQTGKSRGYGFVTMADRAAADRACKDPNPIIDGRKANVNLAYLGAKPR
The following applies: 20 nM protein, 1.5 uM RNA pool; 20 mM HEPES pH 7.8, 70 mM KCl, 10 mM NaCl, 10% glycerol, 2 mM DTT, 0.1 ug/uL BSA; 30 min, 4 C (protocol of this paper; not …); cited from earlier work.

The target in data set [2] is T5, pum (Drosophila melanogaster) (UniProt P25822).
T5 sequence: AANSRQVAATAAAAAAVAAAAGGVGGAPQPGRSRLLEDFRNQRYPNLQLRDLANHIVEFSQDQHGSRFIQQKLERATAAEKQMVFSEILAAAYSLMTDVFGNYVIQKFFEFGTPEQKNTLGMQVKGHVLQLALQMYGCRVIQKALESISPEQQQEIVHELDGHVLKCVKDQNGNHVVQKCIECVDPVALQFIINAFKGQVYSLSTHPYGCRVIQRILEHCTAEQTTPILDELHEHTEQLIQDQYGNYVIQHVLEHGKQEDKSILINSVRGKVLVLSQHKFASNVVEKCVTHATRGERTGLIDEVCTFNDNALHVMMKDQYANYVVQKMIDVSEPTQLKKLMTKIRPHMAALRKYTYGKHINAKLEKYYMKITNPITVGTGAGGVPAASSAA
The following applies: 20 nM protein, 1.5 uM RNA pool; 20 mM HEPES pH 7.8, 70 mM KCl, 10 mM NaCl, 10% glycerol, 2 mM DTT, 0.1 ug/uL BSA; 30 min, 4 C (protocol of this paper; not …); cited from earlier work.

Another data set concerns the target MSI1 (Homo sapiens) (UniProt O43347). The following applies: 20 nM protein, 1.5 uM RNA pool; 20 mM HEPES pH 7.8, 70 mM KCl, 10 mM NaCl, 10% glycerol, 2 mM DTT, 0.1 ug/uL BSA; 30 min, 4 C (protocol of this paper; not …); cited from earlier work.
Another data set has as its target T6, QKI (Homo sapiens) (UniProt Q96PU8).
T6 sequence: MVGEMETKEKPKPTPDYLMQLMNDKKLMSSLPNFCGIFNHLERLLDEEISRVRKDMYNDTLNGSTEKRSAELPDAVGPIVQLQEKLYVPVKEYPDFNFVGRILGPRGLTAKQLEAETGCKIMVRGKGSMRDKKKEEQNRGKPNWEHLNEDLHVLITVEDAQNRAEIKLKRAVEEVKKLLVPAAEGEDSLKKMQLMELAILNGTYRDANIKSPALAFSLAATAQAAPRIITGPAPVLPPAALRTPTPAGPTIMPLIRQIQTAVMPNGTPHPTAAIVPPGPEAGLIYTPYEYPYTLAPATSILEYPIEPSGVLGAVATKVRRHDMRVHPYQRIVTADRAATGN
The following applies: 20 nM protein, 1.5 uM RNA pool; 20 mM HEPES pH 7.8, 70 mM KCl, 10 mM NaCl, 10% glycerol, 2 mM DTT, 0.1 ug/uL BSA; 30 min, 4 C (protocol of this paper; not …); cited from earlier work.

For another data set, the target named is T7, RBM3 (Homo sapiens) (UniProt P98179).
T7 sequence: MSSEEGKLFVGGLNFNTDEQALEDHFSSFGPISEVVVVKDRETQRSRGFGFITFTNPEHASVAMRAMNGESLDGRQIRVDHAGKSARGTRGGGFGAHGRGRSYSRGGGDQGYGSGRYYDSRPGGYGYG
The following applies: 20 nM protein, 1.5 uM RNA pool; 20 mM HEPES pH 7.8, 70 mM KCl, 10 mM NaCl, 10% glycerol, 2 mM DTT, 0.1 ug/uL BSA; 30 min, 4 C (protocol of this paper; not …); cited from earlier work.

Data set [3] addresses T8, srsf3 (Xenopus tropicalis) (UniProt A0A8J0SH10).
T8 sequence: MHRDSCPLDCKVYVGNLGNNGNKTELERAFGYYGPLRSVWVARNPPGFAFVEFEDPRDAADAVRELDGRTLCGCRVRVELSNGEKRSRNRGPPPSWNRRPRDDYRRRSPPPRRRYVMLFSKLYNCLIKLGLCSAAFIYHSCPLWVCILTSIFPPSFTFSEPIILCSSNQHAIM
The following applies: 20 nM protein, 1.5 uM RNA pool; 20 mM HEPES pH 7.8, 70 mM KCl, 10 mM NaCl, 10% glycerol, 2 mM DTT, 0.1 ug/uL BSA; 30 min, 4 C.

Data set [4] concerns the target T9, NAB2 (Saccharomyces cerevisiae) (UniProt P32505).
T9 sequence: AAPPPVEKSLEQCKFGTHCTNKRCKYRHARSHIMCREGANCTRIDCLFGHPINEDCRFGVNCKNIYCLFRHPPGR
The following applies: 20 nM protein, 1.5 uM RNA pool; 20 mM HEPES pH 7.8, 70 mM KCl, 10 mM NaCl, 10% glycerol, 2 mM DTT, 0.1 ug/uL BSA; 30 min, 4 C (protocol of this paper; not …); cited from earlier work.

The next data set addresses T10, RBM28 (Homo sapiens) (UniProt Q9NW13).
T10 sequence: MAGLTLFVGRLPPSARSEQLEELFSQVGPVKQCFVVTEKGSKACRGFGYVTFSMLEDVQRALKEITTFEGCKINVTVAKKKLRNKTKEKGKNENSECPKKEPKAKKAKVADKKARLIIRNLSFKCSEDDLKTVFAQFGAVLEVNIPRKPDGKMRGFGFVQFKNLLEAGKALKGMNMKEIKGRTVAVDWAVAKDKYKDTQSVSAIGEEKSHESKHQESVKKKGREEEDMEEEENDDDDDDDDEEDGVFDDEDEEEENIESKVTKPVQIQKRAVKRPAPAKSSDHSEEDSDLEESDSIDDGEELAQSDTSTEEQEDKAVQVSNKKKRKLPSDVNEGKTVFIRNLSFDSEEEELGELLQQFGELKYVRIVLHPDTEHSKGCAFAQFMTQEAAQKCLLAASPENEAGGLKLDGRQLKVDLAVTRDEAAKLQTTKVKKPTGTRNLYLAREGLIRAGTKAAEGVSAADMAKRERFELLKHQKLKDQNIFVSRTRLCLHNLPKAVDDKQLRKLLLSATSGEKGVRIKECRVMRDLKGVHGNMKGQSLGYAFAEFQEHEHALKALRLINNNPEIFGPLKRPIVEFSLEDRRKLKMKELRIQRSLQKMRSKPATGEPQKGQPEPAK
The following applies: 20 nM protein, 1.5 uM RNA pool; 20 mM HEPES pH 7.8, 70 mM KCl, 10 mM NaCl, 10% glycerol, 2 mM DTT, 0.1 ug/uL BSA; 30 min, 4 C (protocol of this paper; not …); cited from earlier work.

Chain of MSI1 (Homo sapiens) (O43347 1-230): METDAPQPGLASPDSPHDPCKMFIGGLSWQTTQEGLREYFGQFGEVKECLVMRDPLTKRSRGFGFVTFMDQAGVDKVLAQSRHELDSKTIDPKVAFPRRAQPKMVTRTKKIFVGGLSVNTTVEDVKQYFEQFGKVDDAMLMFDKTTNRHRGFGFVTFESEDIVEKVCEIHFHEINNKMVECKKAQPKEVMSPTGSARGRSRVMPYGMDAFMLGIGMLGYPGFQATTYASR

With AUACAU [RNAcompete motif RNCMPT00053], the binding signal (z-score (mean of top ten 7-mers)) with RBM41 (Homo sapiens) was 10.7.

As to UUUUUUG [RNAcompete motif RNCMPT01674], the binding signal (z-score (mean of top ten 7-mers)) in data set [1] was found to be 6.08.

Consider CGCGCG [RNAcompete motif RNCMPT00113], for which the binding signal (z-score (mean of top ten 7-mers)) with RBM4 (Homo sapiens) was 17.7.

For UUUNUGU [RNAcompete motif RNCMPT00051], the binding signal (z-score (mean of top ten 7-mers)) in the data set with Rbm38 (Mus musculus) was 17.

On to UGUACAU [RNAcompete motif RNCMPT00046], for which, in [2], the binding signal (z-score (mean of top ten 7-mers)) was 28.5.

For UAGUUAG [RNAcompete motif RNCMPT00041], in the data set with MSI1 (Homo sapiens), the binding signal (z-score (mean of top ten 7-mers)) is 9.05.

Consider ACUAACC [RNAcompete motif RNCMPT00047], for which, in the data set with QKI (Homo sapiens), the binding signal (z-score (mean of top ten 7-mers)) is 6.41.

With AGAUAC [RNAcompete motif RNCMPT00050], the binding signal (z-score (mean of top ten 7-mers)) with RBM3 (Homo sapiens) was 7.1.

In [3], AACAAC [RNAcompete motif RNCMPT01680] registered a binding signal (z-score (mean of top ten 7-mers)) of 9.74.

For CCUCU [RNAcompete motif RNCMPT00042], in [4], the binding signal (z-score (mean of top ten 7-mers)) is 6.1.

For GAGUAG [RNAcompete motif RNCMPT00049], the binding signal (z-score (mean of top ten 7-mers)) with RBM28 (Homo sapiens) is 7.8.
